# Paper doi:10.1101/2023.05.30.542861
# Experiments:
# P00330 = assay: mass photometry; settings: other: mass photometry
# [1] = molecular target: Alcohol dehydrogenase from baker's yeast (baker's yeast) (UniProt P00330); assay: cross-linking
# [2] = molecular target: subunits of the human 20S proteasome (28 subunits); assay: cross-linking
substance,measurement,setting,value
Alcohol dehydrogenase from baker's yeast,% monomers after 5 min in guanidine HCl (dMP),P00330,∼34 % monomers
Alcohol dehydrogenase from baker's yeast (from UniProt P00330 1-348) (enzyme),% of total counts as dimers (25:1 DSBU:ADH),[1],25%
same,% of total counts as monomers (25:1 DSBU:ADH),[1],50%
same,% of total counts as tetramers (25:1 DSBU:ADH),[1],10%
same,% of total counts as tetramers (DSBU molar excess ≥ 100),[1],53%
same,% of total counts as trimers (25:1 DSBU:ADH),[1],14%
same,stoichiometry N,[1],4
subunits of the human 20S proteasome (28 subunits),% covalently stabilised 20S proteasome (25:1 DSBU:20S),[2],16%
same,% covalently stabilised 20S proteasome (400:1 DSBU:20S),[2],25%
